The source of these data is paper PMC3222871.

The target of the series is T1, human POT1 (human, UniProt Q9NUX5 1-634).
T1 sequence: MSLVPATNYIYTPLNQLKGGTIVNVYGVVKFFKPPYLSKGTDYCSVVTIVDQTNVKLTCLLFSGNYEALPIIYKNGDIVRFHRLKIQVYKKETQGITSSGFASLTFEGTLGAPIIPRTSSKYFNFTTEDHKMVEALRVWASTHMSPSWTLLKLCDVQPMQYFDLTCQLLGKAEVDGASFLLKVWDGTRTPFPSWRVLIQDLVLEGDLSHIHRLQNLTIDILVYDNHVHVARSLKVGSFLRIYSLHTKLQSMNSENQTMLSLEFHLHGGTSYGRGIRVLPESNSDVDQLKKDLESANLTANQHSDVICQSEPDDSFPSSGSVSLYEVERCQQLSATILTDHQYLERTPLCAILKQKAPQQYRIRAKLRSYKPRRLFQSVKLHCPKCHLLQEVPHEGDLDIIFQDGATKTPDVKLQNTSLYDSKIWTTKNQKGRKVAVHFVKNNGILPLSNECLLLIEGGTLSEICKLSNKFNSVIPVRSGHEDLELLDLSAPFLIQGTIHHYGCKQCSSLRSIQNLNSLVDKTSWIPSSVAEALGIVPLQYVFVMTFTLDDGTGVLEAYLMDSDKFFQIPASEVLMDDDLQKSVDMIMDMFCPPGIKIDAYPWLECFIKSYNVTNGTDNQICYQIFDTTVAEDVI
As to the kind of experiment: EMSA.

As to TTTTTTTTTTTTTTTTTTTTTTTTTTTTTTTTTT (ssDNA) [dT34], the binding result was “no binding”.
